Reference: patent US20260191943A1, “Methods for Preparing Conjugated Capsular Saccharide Antigens and Uses Thereof” (PFIZER INC., priority 2022, published 2026)
Square brackets hold non-standard residues; d marks the D form. Ends that are not written are not given here. Pra = C#CC[C@H](N)C(=O)O

Test: PADRE peptide solubility / staying in solution
Type: physicochemical
Description: It is possible that the PADRE constructs disclosed herein may have solubility limitations in aqueous solutions (<5 mg/ml max concentration) versus DMSO solutions (<10 mg/ml max concentration), so conditions for PADRE solubility were adjusted to achieve optimum click conjugation efficiency. Ionic gelling may have occurred during the CDAP or DMTMM direct incorporation of PADRE 2, as buffer matrix with high ionic strength in higher concentrated Pn3 solutions promotes gelling. Aggregation with an alkynated CRM197 batch fed approach was also observed in click conjugation reactions. To avoid potential solubility issues, the following conditions with PADRE 3 were proposed: 1. Lower the ionic strength of the reaction matrix and diafiltration matrix to 10 mM phosphate pH 7.0, 2. Slow dose addition of alkynated PADRE 3 into the reaction, and 3. make stock solution of alkynated PADRE 3 in water instead of DMSO to eliminate the need for a lyophilization step.
A reaction was run omitting DMSO from a click conjugate protocol for alkynated trimeric gp120 Epitope mimic peptides using 5 mM Sodium ascorbate, 5 mM aminoguanidine, 0.1 mM CuSO4, and 0.5 mM THPTA ligand in 10 mM phosphate buffer at pH 7.4 containing 5% DMSO for 18 hr [Schellinger et al. (2011) J Am Chem Soc 133(10):3230-3233]. […]

Q: For “{d-ALA}KVAAWTLKAA{d-ALA}{Pra} ([dA]KVAAWTLKAA[dA][Pra]) [PADRE 3]”, which peptide solution solubility (37° C. in the incubator at 200 rpm agitation, DMSO omitted) is on record?
A: stayed soluble

Q: And the “stock solution staying in solution” value (alkynated PADRE 3 stock in water, after 18 hr at room temperature)?
A: did not come out of solution
